{"source": "paper PMC2957522", "about": "(Journal of molecular biology, 2010)", "biological_target": "rabbit skeletal muscle actin (monomeric, Mg-εATP-actin) (rabbit, UniProt P68135 1-377)", "assay": "actin nucleotide exchange kinetics", "data": [{"binder": "Toxoplasma gondii profilin (TgPRF) (natural protein, selenomethionine-substituted (level of selenium substitution essentially 100%)) MSDWDPVVKEWLVDTGYCCAGGIANAEDGVVFAAAADDDDGWSKLYKDDHEEDTIGEDGNACGKVSINEASTIKAAVDDGSAPNGVWIGGQKYKVVRPEKGFEYNDCTFDITMCARSKGGAHLIKTPNGSIVIALYDEEKEQDKGNSRTSALAFAEYLHQSGY", "values": [{"measurement": "Kd", "result": "13.9 ± 5", "unit": "µM"}]}, {"binder": "TgPRF β-hairpin deletion mutant (ΔBH) (natural protein) MSDWDPVVKEWLVDTGYCCAGGIANAEDGVVFAAAADDDDGWSKLYKDDNEASTIKAAVDDGSAPNGVWIGGQKYKVVRPEKGFEYNDCTFDITMCARSKGGAHLIKTPNGSIVIALYDEEKEQDKGNSRTSALAFAEYLHQSGY", "values": [{"measurement": "Kd", "result": "> 150", "unit": "µM"}]}]}
